{"source": "patent US20080235828A1", "about": "(University of Manitoba, priority 2004, published 2008)", "molecules": {"B1": {"name": "ABAP1: barley ABA-binding protein, 472 amino acids, SEQ ID NO: 10; expressed from effector construct in bombardment tests (protein)", "chain": "MNSLSGTYIMRGCEQPLIVRFADPKRPRPGESRGGPAFGGPGVSSRSDAALVIRPTANLDEQIGRHMPPDTWRPSSPSSMAPHQFNNFGSDNSMGLMGGPVTSAADNVAFRPQLFHGNGSLSSQTAVPASSHMGINPSLSQGHHLGGPQIPPLQKPTGLQQNFPVQLQNAQQGQLHASQSLGPGSFGQNIPTMQLPGQLPVSQPLTQQNASACALQAPSAVQSNPMQSVPGQQQLPSNLTPQMLQQPVQQMLSQAPQLLLQQQQAAMQSSYQSSQQTIFQLQQQLQLMQQQQHQQQPNLNQQPHTQVPKQQGQPVQSNAPGAPAAMMTTNINAIPQQVNSPAVSLTCNWTEHTSPEGFKYYYNSITRESKWEKPEEYVLYEQQQQQQDHQKLILLQQHQQKLVAQQLQSPPQAQTIPSMQSMQHHPQSQQGHNQMQMKQQDLNYNQLQPTGTIDPSRIQQGIQAAQERSWKS", "modifications": "Hordeum, vulgare subsp. vulgare"}}, "key": {"[1]": {"test_system": "em promoter", "assay": "em promoter driven GUS expression in bombarded barley aleurone layers", "assay_type": "cell-based", "conditions": "em plus ABAP1 bombardment, without ABA treatment", "source_text": "The studies examined the effector and reporter constructs, at a 1:1 ratio, introduced to barley aleurone layers by gold particle bombardment. The bombardment consisted of two trials: the first trial was a bombardment of em promoter only; the second trial was a bombardment of em promoters treated with ABAP1."}, "[2]": {"test_system": "McLeod barley embryos", "assay": "Germination of bombarded mature embryos, McLeod line", "assay_type": "in vivo", "conditions": "in the presence of ABAP1", "method": "(§1) To determine whether or not ABAP1 affects seed germination, mature embryo from two different barley lines (McLeod and Harrington) were bombarded with sense and anti-sense orientation of ABAP1. The embryos were subjected to different ABA treatments and the germination rate, plumule length, radical length and root numbers per embryo were measured for up to four days after bombardment."}, "[3]": {"test_system": "Harrington barley embryos", "assay": "Germination and growth of bombarded mature embryos, Harrington line", "assay_type": "in vivo", "method": "as §1"}, "[4]": {"test_system": "α-amylase activity", "assay": "α-amylase activity in bombarded barley aleurones", "assay_type": "cell-based", "conditions": "em and ABAP1 bombarded aleurones", "description": "A similar experiment was conducted with α-amylase activity to confirm if ABAP1 is involved in another signal transduction pathway. α-amylase activity was measured after ABA, PBI51 and GA were added to the em and ADAPT bombarded barley aleurones."}}, "data": [{"molecule": "B1", "values": [{"measurement": "GUS activity versus em alone", "setting": "[1]", "value": "twice fold"}, {"measurement": "germination rate", "setting": "[2]", "value": "significantly lower"}, {"measurement": "germination rates", "setting": "[3]", "value": "did not seem to be affected"}, {"measurement": "plumule and radical growth", "setting": "[3]; in the presence of ABAP1", "value": "significantly retarded"}, {"measurement": "α-amylase activity", "setting": "[4]", "value": "reduction"}]}]}
